Reference: paper PMC11662939, “CRISPR-AsCas12f1 couples out-of-protospacer DNA unwinding with exonuclease activity in the sequential target cleavage”
Changes are numbered by the printed parent chain.

T1: AsCas12f1 (Acidibacillus sulfuroxidans, UniProt A0A2U3D0N8 1-422)
T1 sequence: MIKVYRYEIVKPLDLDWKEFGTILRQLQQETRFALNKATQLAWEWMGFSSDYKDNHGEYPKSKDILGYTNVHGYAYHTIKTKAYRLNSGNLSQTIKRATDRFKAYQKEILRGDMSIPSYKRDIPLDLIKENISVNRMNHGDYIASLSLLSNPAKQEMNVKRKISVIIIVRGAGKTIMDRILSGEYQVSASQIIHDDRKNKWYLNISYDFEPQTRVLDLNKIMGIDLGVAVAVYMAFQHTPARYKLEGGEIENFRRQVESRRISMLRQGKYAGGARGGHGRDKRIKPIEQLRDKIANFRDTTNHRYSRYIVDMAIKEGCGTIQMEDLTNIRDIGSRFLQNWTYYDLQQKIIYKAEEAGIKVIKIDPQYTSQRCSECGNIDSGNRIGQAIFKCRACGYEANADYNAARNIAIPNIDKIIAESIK

B1: smFRET target DNA with crRNA/tracrRNA (mixed)
DNA 1: ACGCACCAGAAACGAAGGCTACGTCCAGGAGCGCACCATCTTCTTCAAGGAATACAAACAAGCTAAGCACAACGTCGTCT
DNA 2: AGACGACGTTGTGCTTAGCTTGTTTGTATTCCTTGAAGAAGATGGTGCGCTCCTGGACGTAGCCTTCGTTTCTGGTGCGT
RNA 1: GUUUGCGAGCUAGCUUGUGGAGUGUGAACUAUUCCUUGAAGAAGAUGGU
RNA 2: GGAUUCGUCGGUUCAGCGACGAUAAGCCGAGAAGUGCCAAUAAAACUGUUAAGUGGUUUGGUAACGCUCGGUAAGGUAGCCAAAAGGCUGAAACUCCGUGCACAAAGACCGCACGGACGCUUCACAUAUAGCUCAUAAAC
B2: Protospacer 16-20mm DNA with crRNA/tracrRNA (mixed)
DNA 1: B1 DNA 1 with A35G, C36T, C37A, A38C, T39G
DNA 2: B1 DNA 2 with A42C, T43G, G44T, G45A, T46C
RNA 1: B1 RNA 1
RNA 2: B1 RNA 2

Legend:
[1] = target: T1, AsCas12f1; test: smFRET; crRNA-tracrRNA; binding then cleavage, E ~0.5; Assay buffers not in the material; duplexes annealed in 20 mM Tris-HCl pH 8.0, 50 mM NaCl; smFRET with 1-10 mM Mg2+; settings: protein: recombinant; tags: N-terminal His6-SUMO, removed by HRV3C; chain copies: 2; label: iCy3dT (+34) and 3' biotin on NTS; 3' Cy5 on crRNA; strands: TS/NTS/crRNA/tracrRNA; DNA blunt; crRNA 3' 20 nt pairs with TS
[2] = target: T1, AsCas12f1; test: smFRET; partially matched guide/target (16-20mm); low E 0.2-0.4, partial hybridization; Assay buffers not in the material; duplexes annealed in 20 mM Tris-HCl pH 8.0, 50 mM NaCl; smFRET with 1-10 mM Mg2+; settings: protein: recombinant; tags: N-terminal His6-SUMO, removed by HRV3C; chain copies: 2; label: iCy3dT and 3' biotin on NTS; 3' Cy5 on crRNA; strands: TS/NTS/crRNA/tracrRNA; DNA blunt; guide mismatched at positions 16-20

Binder	binding result [1]	binding result [2]
B1	binds	
B2		binds
